Biological target: receptors for heregulin on rat Schwann cell lines (ESC and ASC)

- half-maximal response, growth of rat ESC and ASC Schwann cell lines: 1 to 2 nM
Substance: recombinant human heregulin-β1 177-244 fragment (from UniProt Q02297) (ligand)
